From IntAct's records for PubMed 24671035

B1: FUN14 domain-containing protein 1 (Homo sapiens), Q8IVP5 (parent)
chain: MATRNPPPQDYESDDDSYEVLDLTEYARRHQWWNRVFGHSSGPMVEKYSVATQIVMGGVTGWCAGFLFQKVGKLAATAVGGGFLLLQIASHSGYVQIDWKRVEKDVNKAKRQIKKRANKAAPEINNLIEEATEFIKQNIVISSGFVGGFLLGLAS
partner: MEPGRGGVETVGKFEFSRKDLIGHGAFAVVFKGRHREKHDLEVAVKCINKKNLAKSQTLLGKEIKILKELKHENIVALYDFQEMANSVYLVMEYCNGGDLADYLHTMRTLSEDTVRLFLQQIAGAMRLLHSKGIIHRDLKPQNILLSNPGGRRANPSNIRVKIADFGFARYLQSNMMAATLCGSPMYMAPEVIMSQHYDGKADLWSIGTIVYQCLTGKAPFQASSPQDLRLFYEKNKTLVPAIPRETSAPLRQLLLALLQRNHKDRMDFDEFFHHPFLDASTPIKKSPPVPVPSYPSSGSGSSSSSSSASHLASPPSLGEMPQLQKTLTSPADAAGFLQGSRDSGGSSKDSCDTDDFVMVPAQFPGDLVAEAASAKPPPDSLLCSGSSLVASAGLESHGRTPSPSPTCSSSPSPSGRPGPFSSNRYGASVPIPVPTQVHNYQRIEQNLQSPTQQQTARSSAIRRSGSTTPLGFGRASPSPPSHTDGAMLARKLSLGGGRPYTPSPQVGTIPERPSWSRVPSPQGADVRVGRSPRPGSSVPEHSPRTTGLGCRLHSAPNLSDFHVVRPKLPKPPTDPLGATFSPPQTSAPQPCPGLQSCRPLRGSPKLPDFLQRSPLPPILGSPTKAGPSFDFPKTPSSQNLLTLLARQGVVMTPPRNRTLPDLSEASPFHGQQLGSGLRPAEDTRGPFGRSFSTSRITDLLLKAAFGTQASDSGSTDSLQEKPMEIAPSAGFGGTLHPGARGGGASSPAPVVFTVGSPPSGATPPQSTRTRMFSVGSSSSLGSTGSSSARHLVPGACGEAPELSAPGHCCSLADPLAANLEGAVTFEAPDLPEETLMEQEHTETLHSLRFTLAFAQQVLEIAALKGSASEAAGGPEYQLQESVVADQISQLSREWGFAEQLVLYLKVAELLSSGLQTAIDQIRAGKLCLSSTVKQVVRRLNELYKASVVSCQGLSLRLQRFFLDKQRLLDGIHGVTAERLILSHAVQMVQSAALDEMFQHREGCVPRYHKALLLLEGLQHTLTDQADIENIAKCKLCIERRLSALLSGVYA
B2: FUN14 domain-containing protein 1 (Homo sapiens), Q8IVP5 (parent)
chain: B1 chain

Variants of: B1
Conditions: with ulk1_mouse Ulk1, O70405

Row | effect of a mutation on the interaction | Variant
1 | disrupting interaction | MATRNPPPQDYESDDDSYEVLDLTEYARRHQWWNRVFGHSSGPMVEKYSVATQIVMGGVTGWCAGFLFQKVGKLAATAVGGGFLLLQIASHSGYVQIDWKRVEKDVNKAKRQIKKRAAKAAPEINNLIEEATEFIKQNIVISSGFVGGFLLGLAS [N118A]

Variants of: B2
Conditions: with mlp3b_human MAP1LC3B

Row | effect of a mutation on the interaction | Variant
2 | increasing interaction | MATRNPPPQDYESDDDDYEVLDLTEYARRHQWWNRVFGHSSGPMVEKYSVATQIVMGGVTGWCAGFLFQKVGKLAATAVGGGFLLLQIASHSGYVQIDWKRVEKDVNKAKRQIKKRANKAAPEINNLIEEATEFIKQNIVISSGFVGGFLLGLAS [S17D]

Variants of: B2
Conditions: with mlp3b_human MAP1LC3B
Remark: another data set of the same source

Row | effect of a mutation on the interaction | Variant
3 | decreasing interaction | MATRNPPPQDYESDDDAYEVLDLTEYARRHQWWNRVFGHSSGPMVEKYSVATQIVMGGVTGWCAGFLFQKVGKLAATAVGGGFLLLQIASHSGYVQIDWKRVEKDVNKAKRQIKKRANKAAPEINNLIEEATEFIKQNIVISSGFVGGFLLGLAS [S17A]
